The series concerns the target 6His-tagged human Akt1, P31749.

Chain of 6His-tagged human Akt1, P31749 (P31749 whole entry, looked up): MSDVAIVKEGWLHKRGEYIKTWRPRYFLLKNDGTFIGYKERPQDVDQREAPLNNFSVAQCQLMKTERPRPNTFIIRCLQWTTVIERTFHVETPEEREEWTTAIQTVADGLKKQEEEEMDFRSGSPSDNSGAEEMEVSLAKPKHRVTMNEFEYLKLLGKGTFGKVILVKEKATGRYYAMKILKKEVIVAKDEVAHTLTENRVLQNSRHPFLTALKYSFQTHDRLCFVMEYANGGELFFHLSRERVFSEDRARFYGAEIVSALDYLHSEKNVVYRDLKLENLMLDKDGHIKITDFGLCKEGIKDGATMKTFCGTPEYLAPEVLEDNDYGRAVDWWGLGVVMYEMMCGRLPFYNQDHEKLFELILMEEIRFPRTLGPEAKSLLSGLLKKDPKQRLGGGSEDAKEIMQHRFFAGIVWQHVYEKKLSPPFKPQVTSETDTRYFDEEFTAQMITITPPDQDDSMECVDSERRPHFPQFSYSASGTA

B1: HA-tagged full length PHLPP2 (protein)
chain: MGYPYDVPDYAMKRNGSRNCLNRRSRFGSRERDWLREDVKRGCVYLYGADTTTATTTTTTSSSSSSSSSSSDLHLVLCTVETPASEICAGEGRESLYLQLHGDLVRRLEPTERPLQIVYDYLSRLGFDDPVRIQEEATNPDLGCMIRFYGEKPCHMDRLDRILLSGIYNVRKGKTQLHKWAERLVVLCGTCLIVSSVKDCQTGKMHILPLVGGKIEEVKRRQYSLAFSSAGAQAQTYHVSFETLAEYQRWQRQASKVVSQRISTVDLSCYSLEEVPEHLFYSQDITYLNLRHNFMQLERPGGLDTLYKFSQLKGLNLSHNKLGLFPILLCEISTLTELNLSCNGFHDLPSQIGNLLNLQTLCLDGNFLTTLPEELGNLQQLSSLGISFNNFSQIPEVYEKLTMLDRVVMAGNCLEVLNLGVLNRMNHIKHVDLRMNHLKTMVIENLEGNKHITHVDLRDNRLTDLDLSSLCSLEQLHCGRNQLRELTLSGFSLRTLYASSNRLTAVNVYPVPSLLTFLDLSRNLLECVPDWACEAKKIEVLDVSYNLLTEVPVRILSSLSLRKLMLGHNHVQNLPTLVEHIPLEVLDLQHNALTRLPDTLFSKALNLRYLNASANSLESLPSACTGEESLSMLQLLYLTNNLLTDQCIPVLVGHLHLRILHLANNQLQTFPASKLNKLEQLEELNLSGNKLKTIPTTIANCKRLHTLVAHSNNISIFPEILQLPQIQFVDLSCNDLTEILIPEALPATLQDLDLTGNTNLVLEHKTLDIFSHITTLKIDQKPLPTTDSTVTSTFWSHGLAEMAGQRNKLCVSALAMDSFAEGVGAVYGMFDGDRNEELPRLLQCTMADVLLEEVQQSTNDTVFMANTFLVSHRKLGMAGQKLGSSALLCYIRPDTADPASSFSLTVANVGTCQAVLCRGGKPVPLSKVFSLEQDPEEAQRVKDQKAIITEDNKVNGVTCCTRMLGCTYLYPWILPKPHISSTPLTIQDELLILGNKALWEHLSYTEAVNAVRHVQDPLAAAKKLCTLAQSYGCQDNVGAMVVYLNIGEEGCTCEMNGLTLPGPVGFASTTTIKDAPKPATPSSSSGIASEFSSEMSTSEVSSEVGSTASDEHNAGGLDTALLPRPERRCSLHPTPTSGLFQRQPSSATFSSNQSDNGLDSDDDQPVEGVITNGSKVEVEVDIHCCRGRDLENSPPLIESSPTLCSEEHARGSCFGIRRQNSVNSGMLLPMSKDRMELQKSPSTSCLYGKKLSNGSIVPLEDSLNLIEVATEVPKRKTGYFAAPTQMEPEDQFVVPHDLEEEVKEQMKQHQDSRLEPEPHEEDRTEPPEEFDTAL
As to B1, the “dephosphorylation of Ser 473 by immunoprecipitated enzyme” value was 60+4% dephosphorylation of Ser 473 and the “dephosphorylation of Thr 308 by immunoprecipitated enzyme” value is “no significant effect on Thr 308 phosphorylation”.

B2: GST-tagged PP2C domain of PHLPP2 (protein)
chain: TSTFWSHGLAEMAGQRNKLCVSALAMDSFAEGVGAVYGMFDGDRNEELPRLLQCTMADVLLEEVQQSTNDTVFMANTFLVSHRKLGMAGQKLGSSALLCYIRPDTADPASSFSLTVANVGTCQAVLCRGGKPVPLSKVFSLEQDPEEAQRVKDQKAIITEDNKVNGVTCCTRMLGCTYLYPWILPKPHISSTPLTIQDELLILGNKALWEHLSYTEAVNAVRHVQDPLAAAKKLCTLAQSYGCQDNVGAMV
With B2, the “dephosphorylation of Ser 473 in 5 minutes (phospho-specific antibody)” value is 82+6% (Ser 473) and the “dephosphorylation of Thr 308 in 5 minutes (phospho-specific antibody)” value is 70+2% (Thr 308).

Source of the values: US20080108569.
